# Data reported in the Immune Epitope Database (IEDB).
# Experiments:
# HLA-C*14:02 = experiment: IEDB peptide-MHC binding, purified MHC/direct/fluorescence; filed as Kd, often an IC50 or EC50 that approximates it; ≥ and ≤ were set here for values at or beyond the usual limits of such assays
# HLA-B*07:02 = experiment: as above
# HLA-A*29:02 [1] = experiment: as above
# HLA-A*01:01 = experiment: as above
# HLA-A*02:01 [2] = experiment: IEDB peptide-MHC binding, purified MHC/competitive/fluorescence; ≥ and ≤ were set here for values at or beyond the usual limits of such assays
# HLA-A*03:01 [3] = experiment: as above
# HLA-A*11:01 [4] = experiment: as above
# HLA-A*24:02 [5] = experiment: as above
# HLA-B*51:01 = experiment: IEDB peptide-MHC binding, purified MHC/competitive/fluorescence; filed as Kd, often an IC50 or EC50 that approximates it; ≥ and ≤ were set here for values at or beyond the usual limits of such assays; conditions: source organism: Entamoeba histolytica HM-1:IMSS
# HLA-B*57:01 = experiment: as above; conditions: source organism: Entamoeba histolytica HM-1:IMSS
# HLA-A*02:01 [6] = experiment: as above; conditions: source organism: Entamoeba histolytica HM-1:IMSS
# HLA-A*29:02 [7] = experiment: as above; conditions: source organism: Entamoeba histolytica HM-1:IMSS
# HLA-B*46:01 = experiment: as above; conditions: source organism: Entamoeba histolytica HM-1:IMSS
# HLA-B*15:17 = experiment: as above; conditions: source organism: Entamoeba histolytica HM-1:IMSS
# HLA-A*03:01 [8] = experiment: as above; conditions: source organism: Entamoeba histolytica HM-1:IMSS
# HLA-B*18:01 = experiment: as above; conditions: source organism: Entamoeba histolytica HM-1:IMSS
# HLA-B*15:01 [9] = experiment: as above; conditions: source organism: Entamoeba histolytica HM-1:IMSS
# HLA-B*27:03 = experiment: as above; conditions: source organism: Entamoeba histolytica HM-1:IMSS
# HLA-A*26:01 = experiment: as above; conditions: source organism: Entamoeba histolytica HM-1:IMSS
# HLA-A*02:19 = experiment: as above; conditions: source organism: Entamoeba histolytica HM-1:IMSS
# HLA-B*39:01 = experiment: as above; conditions: source organism: Influenza A virus H3N2
# HLA-A*02:01 [10] = experiment: IEDB peptide-MHC binding, purified MHC/direct/fluorescence; filed as Kd, often an IC50 or EC50 that approximates it; ≥ and ≤ were set here for values at or beyond the usual limits of such assays; conditions: source organism: Influenza A virus (A/Ck/HK/2133.1/2003(H5N1))
# HLA-B*27:05 = experiment: as above; conditions: source organism: Influenza A virus (A/Puerto Rico/8/34/Mount Sinai(H1N1))
# HLA-C*05:01 = experiment: as above; conditions: source organism: Influenza A virus H3N2
# HLA-A*31:01 = experiment: as above; conditions: source organism: Influenza A virus (A/Ck/HK/2133.1/2003(H5N1))
# HLA-A*11:01 [11] = experiment: as above; conditions: source organism: Influenza A virus (A/Ck/HK/2133.1/2003(H5N1))
# HLA-B*40:01 = experiment: as above; conditions: source organism: Influenza A virus (A/Puerto Rico/8/34/Mount Sinai(H1N1))
# HLA-B*44:02 = experiment: as above; conditions: source organism: Influenza A virus (A/Ck/HK/2133.1/2003(H5N1))
# HLA-B*15:01 [12] = experiment: as above; conditions: source organism: Influenza A virus (A/Ck/HK/2133.1/2003(H5N1))
# HLA-A*24:02 [13] = experiment: as above; conditions: source organism: Influenza A virus (A/Ck/HK/2133.1/2003(H5N1))
# HLA-B*08:01 = experiment: as above; conditions: source organism: Influenza A virus (A/Ck/HK/2133.1/2003(H5N1))
# HLA-B*08:02 = experiment: as above; conditions: source organism: Influenza A virus(A/swine/Shandong/fNY/2003(H9N2))
# HLA-B*58:01 = experiment: as above; conditions: source organism: Influenza A virus (A/Ck/HK/2133.1/2003(H5N1))
# HLA-B*15:01 [14] = experiment: IEDB peptide-MHC binding, purified MHC/competitive/fluorescence; ≥ and ≤ were set here for values at or beyond the usual limits of such assays; conditions: source organism: Vaccinia virus
# HLA-B*15:03 = experiment: IEDB peptide-MHC binding, purified MHC/competitive/radioactivity; filed as Kd, often an IC50 or EC50 that approximates it; ≥ and ≤ were set here for values at or beyond the usual limits of such assays; conditions: source organism: Vaccinia virus WR
# [15] = source organism: Mycobacterium tuberculosis variant bovis BCG str. Pasteur 1173P2
# [16] = source organism: Mammarenavirus juninense
# [17] = source organism: Zaire ebolavirus
# [18] = source organism: Vaccinia virus
# [19] = source organism: Sudan ebolavirus
sequence,measurement,setting,value
APPPFRLPL,Kd,HLA-C*14:02; source organism: Mycobacterium tuberculosis H37Rv,0.714 µM
same,Kd,HLA-B*07:02; [15],0.0775 µM
HTEFQTVSF,Kd,HLA-A*29:02 [1]; [16],≥ 20 µM
same,Kd,HLA-A*01:01; [16],2.29 µM
APINSATAM,Kd,HLA-C*14:02; [15],0.321 µM
IQNVPGPHR,IC50,HLA-A*02:01 [2]; [17],≥ 119 µM
same,IC50,HLA-A*03:01 [3]; [17],8.53 µM
same,IC50,HLA-A*11:01 [4]; [17],0.889 µM
same,IC50,HLA-A*24:02 [5]; [17],6.86 µM
YLHIHPFKI,Kd,HLA-B*51:01,≥ 20 µM
same,Kd,HLA-B*57:01,≥ 20 µM
same,Kd,HLA-A*02:01 [6],0.0061 µM
same,Kd,HLA-A*29:02 [7],≥ 20 µM
same,Kd,HLA-B*46:01,≥ 20 µM
same,Kd,HLA-B*15:17,≥ 20 µM
same,Kd,HLA-A*03:01 [8],≥ 20 µM
same,Kd,HLA-B*18:01,≥ 20 µM
same,Kd,HLA-B*15:01 [9],≥ 20 µM
same,Kd,HLA-B*27:03,≥ 20 µM
same,Kd,HLA-A*26:01,≥ 20 µM
same,Kd,HLA-A*02:19,0.0678 µM
SADPLASLL,Kd,HLA-B*39:01,0.157 µM
same,Kd,HLA-A*02:01 [10],≥ 20 µM
same,Kd,HLA-B*27:05,1.37 µM
same,Kd,HLA-C*05:01,≤ 0.001 µM
same,Kd,HLA-A*31:01,≥ 20 µM
same,Kd,HLA-A*11:01 [11],≥ 20 µM
same,Kd,HLA-B*40:01,3.25 µM
same,Kd,HLA-B*44:02,≥ 20 µM
same,Kd,HLA-B*15:01 [12],≥ 20 µM
same,Kd,HLA-A*24:02 [13],≥ 20 µM
same,Kd,HLA-B*08:01,≥ 20 µM
same,Kd,HLA-B*08:02,≥ 20 µM
same,Kd,HLA-B*07:02; source organism: Influenza A virus (A/Ck/HK/2133.1/2003(H5N1)),≥ 20 µM
same,Kd,HLA-B*58:01,≥ 20 µM
SLYPNVCIF,IC50,HLA-A*02:01 [2]; [18],1.88 µM
same,IC50,HLA-A*03:01 [3]; [18],≥ 365 µM
same,IC50,HLA-B*15:01 [14],5.7 µM
same,IC50,HLA-A*24:02 [5]; [18],0.0384 µM
same,Kd,HLA-B*15:03,0.00494 µM
RTNGASYAY,Kd,HLA-A*29:02 [1]; source organism: Mycobacterium tuberculosis str. Haarlem,≤ 0.001 µM
same,Kd,HLA-A*01:01; source organism: Mycobacterium tuberculosis,0.199 µM
LLQKYPPPR,IC50,HLA-A*02:01 [2]; [18],≥ 101 µM
same,IC50,HLA-A*03:01 [3]; [18],4.03 µM
same,IC50,HLA-A*11:01 [4]; [18],7.75 µM
AFLILPQAK,IC50,HLA-A*03:01 [3]; [17],20 µM
same,IC50,HLA-A*11:01 [4]; [17],14.1 µM
same,IC50,HLA-A*24:02 [5]; [17],26.9 µM
ILGSLGLRK,IC50,HLA-A*02:01 [2]; [19],≥ 141 µM
same,IC50,HLA-A*03:01 [3]; [19],0.872 µM
same,IC50,HLA-A*11:01 [4]; [19],0.219 µM
SIATNLEYK,IC50,HLA-A*03:01 [3]; [18],3.98 µM
same,IC50,HLA-A*11:01 [4]; [18],0.427 µM
